Test results taken from patent publication US7544477B2, “Circularly permutated, interaction-activated proteins” (KaloBios, Inc., priority 2000, dated 2009).

Key:
[1] = biological target: hetero-dimerizing leucine zipper helix from the c-jun subunit of the AP-1 transcription factor; experiment: cell-based or functional assay
[2] = system: TG1 cells; experiment: Activation of TEM-1 β-lactamase fragment complementation by disulfide-assisted fos-jun interaction (plating on ampicillin); format: cell-based, E. coli; conditions: without a stabilizing peptide; same expression conditions
Experimental: Cysteines were added to the sequences of α197 and ω198, between the break-point termini and the linkers leading to the heterologous interactors.
Disulfide formation was made to be more dependent on the heterologous interaction by two modifications. First, disulfide formation can be inhibited by inclusion of a reducing agent in the growth medium. […] Secondly, the cysteines were shifted by one residue each away form the break-point and into the β-lactamase sequence, so that they became separated in the native fold by an additional ˜8 Å.

Chain of hetero-dimerizing leucine zipper helix from the c-jun subunit of the AP-1 transcription factor (P05412 280-308): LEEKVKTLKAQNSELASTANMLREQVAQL

hetero-dimerizing leucine zipper helix from the c-fos subunit of the AP-1 transcription factor (peptide)
Hi Amp (max ampicillin with >10% plating), break-point A227/G228, +Fos/Jun [1]: 50 µg/mL | Hi Amp (max ampicillin with >10% plating), break-point A227/G228, +S-S, +Fos/Jun [1]: 200 µg/mL | Hi Amp (max ampicillin with >10% plating), break-point E63/E64, +S-S, +Fos/Jun [1]: 25 µg/mL | Hi Amp (max ampicillin with >10% plating), break-point E197/L198, +Fos/Jun [1]: 50 µg/mL | Hi Amp (max ampicillin with >10% plating), break-point E197/L198, +S-S, +Fos/Jun [1]: 100 µg/mL | Hi Amp (max ampicillin with >10% plating), break-point G253/K254, +Fos/Jun [1]: 50 µg/mL | Hi Amp (max ampicillin with >10% plating), break-point G253/K254, +S-S, +Fos/Jun [1]: 400 µg/mL | Hi Amp (max ampicillin with >10% plating), break-point K215/V216, +Fos/Jun [1]: 25 µg/mL | Hi Amp (max ampicillin with >10% plating), break-point K215/V216, +S-S, +Fos/Jun [1]: 100 µg/mL | Hi Amp (max ampicillin with >10% plating), break-point N52/S53, +S-S, +Fos/Jun [1]: 25 µg/mL | Hi Amp (max ampicillin with >10% plating), break-point P174/N175, +Fos/Jun [1]: 50 µg/mL | Hi Amp (max ampicillin with >10% plating), break-point P174/N175, +S-S, +Fos/Jun [1]: 200 µg/mL | Hi Amp (max ampicillin with >10% plating), break-point Q99/N100, +S-S, +Fos/Jun [1]: 25 µg/mL | activation index, break-point P174/N175, fos-jun with disulfide [1]: 1e+07 | activation index, α197/ω198 with break-point cysteines, 10 mM DTT, 100 µg/ml ampicillin [1]: > 1000 fold | activation index, α197/ω198 with cysteines shifted by one residue, 50 µg/ml ampicillin [1]: > 100000 | ampicillin concentration of recovery, α197/ω198 with break-point tri-peptides, strain DH5α [1]: 800 µg/mL | ampicillin concentration of recovery, α197/ω198 with break-point tri-peptides, strain TG1 [1]: 400 µg/mL | plating efficiency on 25 µg/ml ampicillin, wild-type α197-jun + fos-ω198 [1]: 30% | plating efficiency on 50 µg/ml ampicillin, α197-fos + jun-ω198 alone [1]: 1% | plating efficiency on 50 µg/ml ampicillin, α197-fos + jun-ω198 with GRE-trxA in trans [1]: 100% | plating efficiency on 50 µg/ml ampicillin, α197/ω198 with cysteines shifted by one residue [1]: 10% | plating efficiency on 100 µg/ml ampicillin, wild-type α197-jun + fos-ω198 (colonies per cell) [1]: < 1e-06 | plating efficiency on 400 µg/ml ampicillin, break-point G253/K254, fos-jun with disulfide [1]: > 25%

B1: wild-type TEM-1 β-lactamase: intact TEM-1 β-lactamase of E. coli (protein, UniProt P62593 24-286, looked up)
Beta-lactamase TEM: HPETLVKVKDAEDQLGARVGYIELDLNSGKILESFRPEERFPMMSTFKVLLCGAVLSRVDAGQEQLGRRIHYSQNDLVEYSPVTEKHLTDGMTVRELCSAAITMSDNTAANLLLTTIGGPKELTAFLHNMGDHVTRLDRWEPELNEAIPNDERDTTMPAAMATTLRKLLTGELLTLASRQQLIDWMEADKVAGPLLRSALPAGWFIADKSGAGERGSRGIIAALGPDGKPSRIVVIYTTGSQATMDERNRQIAEIGASLIKHW
Ampicillin concentration on which cells plate [2]: ≤ 1000 µg/mL
